Reference: patent US20250066503A1, “CELL INJURY INDUCING THERAPEUTIC DRUG FOR USE IN CANCER THERAPY” (CHUGAI SEIYAKU KABUSHIKI KAISHA, priority 2016, published 2025)

target: T1, human GPC3 (human, UniProt P51654 25-563); assay: SPR
T1 construct: range 25-563; soluble analyte; also called soluble human GPC3; glypican 3
T1 sequence (P51654 25-563 limits assumed): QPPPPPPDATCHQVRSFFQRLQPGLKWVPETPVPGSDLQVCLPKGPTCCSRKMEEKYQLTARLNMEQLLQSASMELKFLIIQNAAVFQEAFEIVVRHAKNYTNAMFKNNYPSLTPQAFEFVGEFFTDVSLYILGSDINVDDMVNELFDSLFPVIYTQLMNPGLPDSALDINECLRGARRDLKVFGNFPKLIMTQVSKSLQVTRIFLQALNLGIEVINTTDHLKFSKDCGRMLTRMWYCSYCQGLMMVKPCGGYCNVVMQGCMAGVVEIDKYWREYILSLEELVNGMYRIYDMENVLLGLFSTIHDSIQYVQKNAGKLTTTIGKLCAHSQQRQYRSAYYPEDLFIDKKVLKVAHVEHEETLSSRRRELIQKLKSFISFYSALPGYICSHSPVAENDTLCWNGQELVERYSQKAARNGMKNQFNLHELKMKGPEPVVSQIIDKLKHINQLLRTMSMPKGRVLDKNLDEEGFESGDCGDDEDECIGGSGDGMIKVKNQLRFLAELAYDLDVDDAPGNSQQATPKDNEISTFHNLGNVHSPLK

Binder	Kd [nM]
H0610-G1dh/none-Hi-Kn010G3/L0063-k0 (antibody, V domains shown, one-arm) VH: QVQLVQSGAEVKKPGASVKVSCKASGYTFTDYEMHWIRQPPGQGLEWIGAIDGKTPDTAYSQKFKGRVTLTADKSTSTAYMELSSLTSEDTAVYYCTRFYSYTYWGQGTLVTVSS VL: DIVMTQSPLSLPVTPGEPASISCRSSQSLVHSNRETYLHWYQQKPGQAPRLLIYKVSNRFSGVPDRFSGSGSGTDFTLKISRVEAEDVGVYYCGQGTQVPYTFGQGTKLEIK	6.03
H0610-G1dh/none-Hi-Kn010G3/L0062-k0 (antibody, V domains shown, one-arm) VH: QVQLVQSGAEVKKPGASVKVSCKASGYTFTDYEMHWIRQPPGQGLEWIGAIDGKTPDTAYSQKFKGRVTLTADKSTSTAYMELSSLTSEDTAVYYCTRFYSYTYWGQGTLVTVSS VL: DIVMTQSPLSLPVTPGEPASISCRSSQSLVHSNRDTYLHWYQQKPGQAPRLLIYKVSNRFSGVPDRFSGSGSGTDFTLKISRVEAEDVGVYYCGQGTQVPYTFGQGTKLEIK	5.28
H0610-G1dh/none-Hi-Kn010G3/L0069-k0 (antibody, V domains shown, one-arm) VH: QVQLVQSGAEVKKPGASVKVSCKASGYTFTDYEMHWIRQPPGQGLEWIGAIDGKTPDTAYSQKFKGRVTLTADKSTSTAYMELSSLTSEDTAVYYCTRFYSYTYWGQGTLVTVSS VL: DIVMTQSPLSLPVTPGEPASISCRSSQSLVHSNRMTYLHWYQQKPGQAPRLLIYKVSNRFSGVPDRFSGSGSGTDFTLKISRVEAEDVGVYYCGQGTQVPYTFGQGTKLEIK	5.32
H0610-G1dh/none-Hi-Kn010G3/L0065-k0 (antibody, V domains shown, one-arm) VH: QVQLVQSGAEVKKPGASVKVSCKASGYTFTDYEMHWIRQPPGQGLEWIGAIDGKTPDTAYSQKFKGRVTLTADKSTSTAYMELSSLTSEDTAVYYCTRFYSYTYWGQGTLVTVSS VL: DIVMTQSPLSLPVTPGEPASISCRSSQSLVHSNRGTYLHWYQQKPGQAPRLLIYKVSNRFSGVPDRFSGSGSGTDFTLKISRVEAEDVGVYYCGQGTQVPYTFGQGTKLEIK	4.79

The next binders have a lower Kd than those just listed; values first:

Kd [nM]	Binder
2.23	H0610-G1dh/none-Hi-Kn010G3/L0047-k0 (antibody, V domains shown, one-arm) VH: QVQLVQSGAEVKKPGASVKVSCKASGYTFTDYEMHWIRQPPGQGLEWIGAIDGKTPDTAYSQKFKGRVTLTADKSTSTAYMELSSLTSEDTAVYYCTRFYSYTYWGQGTLVTVSS VL: DIVMTQSPLSLPVTPGEPASISCRSSQSLVHWNRNTYLHWYQQKPGQAPRLLIYKVSNRFSGVPDRFSGSGSGTDFTLKISRVEAEDVGVYYCGQGTQVPYTFGQGTKLEIK
3.37	H0610-G1dh/none-Hi-Kn010G3/L0064-k0 (antibody, V domains shown, one-arm) VH: QVQLVQSGAEVKKPGASVKVSCKASGYTFTDYEMHWIRQPPGQGLEWIGAIDGKTPDTAYSQKFKGRVTLTADKSTSTAYMELSSLTSEDTAVYYCTRFYSYTYWGQGTLVTVSS VL: DIVMTQSPLSLPVTPGEPASISCRSSQSLVHSNRFTYLHWYQQKPGQAPRLLIYKVSNRFSGVPDRFSGSGSGTDFTLKISRVEAEDVGVYYCGQGTQVPYTFGQGTKLEIK
2.85	H0610-G1dh/none-Hi-Kn010G3/L0075-k0 (antibody, V domains shown, one-arm) VH: QVQLVQSGAEVKKPGASVKVSCKASGYTFTDYEMHWIRQPPGQGLEWIGAIDGKTPDTAYSQKFKGRVTLTADKSTSTAYMELSSLTSEDTAVYYCTRFYSYTYWGQGTLVTVSS VL: DIVMTQSPLSLPVTPGEPASISCRSSQSLVHSNRWTYLHWYQQKPGQAPRLLIYKVSNRFSGVPDRFSGSGSGTDFTLKISRVEAEDVGVYYCGQGTQVPYTFGQGTKLEIK
4.23	H0610-G1dh/none-Hi-Kn010G3/L0079-k0 (antibody, V domains shown, one-arm) VH: QVQLVQSGAEVKKPGASVKVSCKASGYTFTDYEMHWIRQPPGQGLEWIGAIDGKTPDTAYSQKFKGRVTLTADKSTSTAYMELSSLTSEDTAVYYCTRFYSYTYWGQGTLVTVSS VL: DIVMTQSPLSLPVTPGEPASISCRSSQSLVHSNRNTYIHWYQQKPGQAPRLLIYKVSNRFSGVPDRFSGSGSGTDFTLKISRVEAEDVGVYYCGQGTQVPYTFGQGTKLEIK
4.2	H0610-G1dh/none-Hi-Kn010G3/L0066-k0 (antibody, V domains shown, one-arm) VH: QVQLVQSGAEVKKPGASVKVSCKASGYTFTDYEMHWIRQPPGQGLEWIGAIDGKTPDTAYSQKFKGRVTLTADKSTSTAYMELSSLTSEDTAVYYCTRFYSYTYWGQGTLVTVSS VL: DIVMTQSPLSLPVTPGEPASISCRSSQSLVHSNRHTYLHWYQQKPGQAPRLLIYKVSNRFSGVPDRFSGSGSGTDFTLKISRVEAEDVGVYYCGQGTQVPYTFGQGTKLEIK
